Experimental data reported in patent US20210145976A1.

Target: human serum albumin (human) (UniProt P02768)
Assay: screening ELISA

human serum albumin (human), sequence (P02768 25-609 limits assumed): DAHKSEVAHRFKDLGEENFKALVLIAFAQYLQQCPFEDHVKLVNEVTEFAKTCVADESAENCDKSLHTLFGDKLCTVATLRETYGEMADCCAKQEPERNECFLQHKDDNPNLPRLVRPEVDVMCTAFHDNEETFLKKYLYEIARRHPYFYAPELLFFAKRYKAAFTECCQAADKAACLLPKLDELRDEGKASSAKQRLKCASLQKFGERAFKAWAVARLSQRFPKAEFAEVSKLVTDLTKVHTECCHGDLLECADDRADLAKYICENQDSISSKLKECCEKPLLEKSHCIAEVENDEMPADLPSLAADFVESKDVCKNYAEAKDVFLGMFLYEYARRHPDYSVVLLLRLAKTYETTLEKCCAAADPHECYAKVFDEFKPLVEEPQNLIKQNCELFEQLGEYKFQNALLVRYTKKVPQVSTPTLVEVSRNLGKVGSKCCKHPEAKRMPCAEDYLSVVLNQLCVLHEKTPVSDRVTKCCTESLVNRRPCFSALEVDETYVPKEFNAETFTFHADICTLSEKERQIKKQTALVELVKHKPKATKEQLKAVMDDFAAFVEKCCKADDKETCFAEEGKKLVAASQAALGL

HSA | Binder
5700 | SEQ ID NO 136 (designed binder) MLPAPKNLVVSRVTEDSARLSWTAPDAAFDSFFIYYIESYPAGEAIVLTVPGSERSYDLTGLKPGTEYWMGIDGVKGGRWSTPLSAIFTT
10100 | SEQ ID NO 41 (designed binder) MLPAPKNLVISRVTEDSARLSWTAPDAAFDSFFIYYIESYPAGEAIVLTVPGSERSYDLTGLKPGTEYWVGIDGVKGGRWSTPLSAIFTT
8160 | SEQ ID NO 43 (designed binder) MLPAPKNLVVSRVTEDSARLSWTAPDAAFDSFYIEYYESYPGGEAIVLTVPGSERSYDLTGLKPGTEYDVYIYGVKGGYWSRPLSAIFTT
1600 | SEQ ID NO 140 (designed binder) MLPAPKNLVVSRVTEDSARLSWTAPDAAFDSFWISYEESDTEGEAIYLRVPGSERSYDLTGLKPGTEYNVTIQGVKGGFPSMPLSAIFTT
5300 | SEQ ID NO 152 (designed binder) MLPAPKNLVVSRVTEDSARLSWTAPDAAFDSFFIGYLEPQPPGEAIVLTVPGSERSYDLTGLKPGTEYNVTIQGVKGGFPSSPLSAIFTT
9250 | SEQ ID NO 143 (designed binder) MLPAPKNLVVSRVTEDSARLSWTAPDAAFDSFHIAYEEADSEGEAIYLRVPGSERSYDLTGLKPGTEYSVNIQGVKGGIVSFPLHAEFTT
6050 | SEQ ID NO 130 (designed binder) MLPAPKNLVVSRVTEDSARLSWTAPDAAFDSFHIPYVEAEVPGEAIQLHVPGSERSYDLTGLKPGTEYYVEIWGVKGGFYSPPLIAEFTT
1350 | SEQ ID NO 158 (designed binder) MLPAPKNLVVSRVTEDSARLSWTAPDAAFDSFIIDYLELDDYGEAIVLTVPGSERSYDLTGLKPGTEYPVYIYGVKGGLPSTPLSAIFTT
2350 | SEQ ID NO 132 (designed binder) MLPAPKNLVVSRVTEDSARLSWTAPDAAFDSFTIVYAEVTYDGEAIVLTVPGSERSYDLTGLKPGTEYDVFIEGVKGGELSWPLSAIFTT
48400 | SEQ ID NO 145 (designed binder) MLPAPKNLVVSRVTEDSARLSWTAPDAAFDSFFIPYAEPSPTGEAIVLTVPGSERSYDLTGLKPGTEYDVWIEGVKGGTLSWPLSAIFTT
5920 | SEQ ID NO 42 (designed binder) MLPAPKNLVVSRVTEDSARLSWTAPDAAFDSFTIEYYESFYGGEAIVLTVPGSERSYDLTGLKPGTEYYVSIYGVKGGWLSRPLSAIFTT
3300 | SEQ ID NO 160 (designed binder) MLPAPKNLVVSRVTEDSARLSWTAPDAAFDSFNIAYGEWRQHGEAIVLTVPGSERSYDLTGLKPGTEYDVFIDGVKGGNLSWPLSAIFTT
5050 | SEQ ID NO 166 (designed binder) MLPAPKNLVVSRVTEDSARLSWTAPDAAFDSFTILYNEIQNVGEAIVLTVPGSERSYDLTGLKPGTEYDVWIEGVKGGELSWPLSAIFTT
5000 | SEQ ID NO 133 (designed binder) MLPAPKNLVVSRVTEDSARLSWTAPDAAFDSFPIVYGEAWVTGEAIVLTVPGSERSYDLTGLKPGTEYDVWIEGVKGGELSWPLSAIFTT
3350 | SEQ ID NO 149 (designed binder) MLPAPKNLVVSRVTEDSARLSWTAPDAAFDSFIIPYAEVRPDGEAIVLTVPGSERSYDLTGLKPGTEYSVLIHGVKGGKLSEPLSAIFTT
4150 | SEQ ID NO 154 (designed binder) MLPAPKNLVVSRVTEDSARLSWTAPDAAFDSFFIPYAEPRPDGEAIVLTVPGSERSYDLTGLKPGTEYSVLIHGVKGGLLSSPLSAIFTT
3800 | SEQ ID NO 146 (designed binder) MLPAPKNLVVSRVTEDSARLSWTAPDAAFDSFYIAYAEPRPDGEAIVLTVPGSERSYDLTGLKPGTEYSVLIHGVKGGLLSSPLSAIFTT
2750 | SEQ ID NO 144 (designed binder) MLPAPKNLVVSRVTEDSARLSWTAPDAAFDSFIIPYAEVRPDGEAIVLTVPGSERSYDLTGLKPGTEYSVLIHGVKGGKLSLPLSAIFTT
3500 | SEQ ID NO 138 (designed binder) MLPAPKNLVVSRVTEDSARLSWTAPDAAFDSFFIKYIEWWADGEAIVLTVPGSERSYDLTGLKPGTEYLVEIYGVKGGRQSYPLSAIFTT
1900 | SEQ ID NO 171 (designed binder) MLPAPKNLVVSRVTEDSARLSWTAPDAAFDSFAIRYLEWWDVGEAIVLTVPGSERSYDLTGLKPGTEYLVEIKGVKGGKFSYPLSAIFTT
2050 | SEQ ID NO 137 (designed binder) MLPAPKNLVVSRVTEDSARLSWTAPDAAFDSFEIEYDEPSVAGEAIVLTVPGSERSYDLTGLKPGTEYRVFIWGVKGGNQSWPLSAIFTT

HSA | Binder
3700 | SEQ ID NO 172 (designed binder) MLPAPKNLVVSRVTEDSARLSWTAPDAAFDSFPIEYDEWWALGEAITLIVPASERSYDLTGLKPGTEYVVKIHGVKGGQRSYPLIAFFTT
13100 | SEQ ID NO 153 (designed binder) MLPAPKNLVVSRVTEDSARLSWTAPDAALDSFRIAYTEYFVGGEAIVLTVPGSERSYDLTGLKPGTEYGVGIYGVKGGAGSSPLSAIFTT
1950 | SEQ ID NO 134 (designed binder) MLPAPKNLVVSRVTEDSARLSWTAPDAAFDSFWIDYYERKYVGEAIVLTVPGSERSYDLTGLKPGTEYEVTIYGVKGGWYSDPLSAIFTT
2450 | SEQ ID NO 157 (designed binder) MLPAPKNLVVSRVTEDSARLSWTAPDAAFDSFAIEYYEYVGNGEAIVLTVPGSERSYDLTGLKPGTEYQVGIYGVKGGYYSRPLSAIFTT
5050 | SEQ ID NO 161 (designed binder) MLPAPKNLVVSRVTEDSARLSWTAPDAAFDSFTIRYWEELPTGEAIVLTVPGSERSYDLTGLKPGTEYTVEIFGVKGGYLSRPLSAISTT
2100 | SEQ ID NO 139 (designed binder) MLPAPKNLVVSRVTEDSARLSWTAPDAAFDSFDISYWESGKYGEAIVLTVPGSESSYDLTGLKPGTEYLVDIFGVKGGYPSEPLSAIFTT
3250 | SEQ ID NO 128 (designed binder) MLPAPKNLVVSRVTEDSARLSWTAPDAAFDSFIINYIEIVQYGEAIVLTVPGSERSYDLTGLKPGTEYPESIWGVKGGGASSPLSAIFTT
26000 | SEQ ID NO 155 (designed binder) MLPAPKNLVVSRVTEDSARLSWTAPDAAFDSFPITYRERSQYGEAIVLTVPGSERSYDLTGLKPGTEYVVPIEGVKGGRGSKPLSAIFTT
71200 | SEQ ID NO 147 (designed binder) MLPAPKNLVVSRVTEDSARLSWTAPDAAFDSFFIGYLEPQPPGEAIVLTVPGSERSYDLTGLKPGTEYSVLIHGVKGGRNSDPLSAISTT
55000 | SEQ ID NO 151 (designed binder) MLPAPKNLVVSRVTEDSARLSWTAPDAAFDSFFIPYAEPSPTGEAIVLTVPGSERSYDLTGLKPGTEYGVVILGVKGGYGSDPLSAIFTT
1950 | SEQ ID NO 168 (designed binder) MLPAPKNLVVSRVTEDSARLSWTTPDAAFDSFFIGYLEPYPPGEAIVLTVPGSERSYDLTGLKPGTEYVVSIQGVKGGKPSDPLSAIFTT
1950 | SEQ ID NO 159 (designed binder) MLPAPKNLVVSRVTEDSARLSWTAPDAAFDSFLIPYAETSPSGEAIVLTVPGSERSYDLTGLKPGTEYSVLIHGVKGGRNSDPLSAIFTT
3500 | SEQ ID NO 150 (designed binder) MLPAPKNLVVSRVTEDSARLSWTAPDAAFDSFPIAYAEPSPTGEAIVLTVPGSERSYDLTGLKPGTEYSVLIHGVKGGHLSDPLSAIFTT
65200 | SEQ ID NO 165 (designed binder) MLPARKNLVVSRVTEDSARLSWTAPDAAFDSFFIPYAEPSPTGEAIVLTVPGSERSYDLTGLKPGTEYSVLIHGVKGGHLSDPLSAISTT
3400 | SEQ ID NO 142 (designed binder) MLPAPKNLVVSRVTKDSARLSWTAPDAAFDSFHIAYEEATTYGEAIFLRVPGSERSYDLTGLKPGTEYEVKIHGVKGGADSKPLVAPFTT
1850 | SEQ ID NO 162 (designed binder) MLPAPKNLVVSRVTEDSARLSWTAPDAAFDSFHIAYEEATTYGEAIFLRVPGSERSYDLTGLKPGTEYDVWIEGVKGGTISGPLSAIFTT
2960 | SEQ ID NO 40 (designed binder) MLPAPKNLVVSRVTEDSARLSWTAPDAAFDSFVIEYWEYVGHGEAIVLTVPGSERSYDLTGLKPGTEYSVGIYGVKGGSLSRPLSAIFTT
3150 | SEQ ID NO 141 (designed binder) MLPAPKNLVVSRVTEDSARLSWTAPDAAFDSFVIEYFEQFNLGEAIVLTVPGSERSYDLTGLKPGTEYLVGIYGVKGGWLSHPLSAIFTT
5000 | SEQ ID NO 156 (designed binder) MLPAPKNLVVSRVTEDSARLSWTAPDAAFDSFAIEYFENLGIGEAIVLTVPGSERSYDLTGLKPGTEYVVNIYGVKGGWLSSPLSAIFTT
16800 | SEQ ID NO 170 (designed binder) MLPAPKNLVVSRVTEDSARLSWTAPDAAFDSFFIGYPEYPATGEAIVLTVPGSERSYDLTGLKPGTEYFVDINGVKGGSLSYPLSAIFTT
